The results in this text go back to IntAct's records for PubMed 20727515.

Sequences and labels used below:
B1: ADP-ribosylation factor 6 (Homo sapiens), P62330 (parent)
chain: MGKVLSKIFGNKEMRILMLGLDAAGKTTILYKLKLGQSVTTIPTVGFNVETVTYKNVKFNVWDVGGQDKIRPLWRHYYTGTQGLIFVVDCADRDRIDEARQELHRIINDREMRDAIILIFANKQDLPDAMKPHEIQEKLGLTRIRDRNWYVQPSCATSGDGLYEGLTWLTSNYKS
partner: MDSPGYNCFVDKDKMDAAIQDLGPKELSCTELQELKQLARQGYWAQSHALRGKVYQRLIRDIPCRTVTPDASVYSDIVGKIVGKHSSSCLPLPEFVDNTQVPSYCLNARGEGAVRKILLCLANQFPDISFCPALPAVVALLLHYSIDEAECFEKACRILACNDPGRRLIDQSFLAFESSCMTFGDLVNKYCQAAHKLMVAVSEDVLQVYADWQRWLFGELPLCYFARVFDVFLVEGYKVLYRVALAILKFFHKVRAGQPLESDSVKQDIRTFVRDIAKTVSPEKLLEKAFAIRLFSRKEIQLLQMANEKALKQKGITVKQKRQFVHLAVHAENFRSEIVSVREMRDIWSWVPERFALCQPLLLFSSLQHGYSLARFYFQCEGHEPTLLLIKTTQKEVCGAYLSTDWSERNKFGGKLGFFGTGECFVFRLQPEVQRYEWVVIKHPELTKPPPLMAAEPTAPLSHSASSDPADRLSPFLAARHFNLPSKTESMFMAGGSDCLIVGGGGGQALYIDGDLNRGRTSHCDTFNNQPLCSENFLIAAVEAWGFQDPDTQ
B2: TBC1 domain family member 24 (Homo sapiens), Q9ULP9-2 (parent)
chain: B1 partner

In the first assay the parent is B1. As to conditions: with TBC1D24, Q9ULP9-2.
Turning to T27N, the “effect of a mutation on the interaction” value is “increasing interaction strength”.

As to Q67L, the “effect of a mutation on the interaction” value was “with no effect”.

Variants of B2 are the subject of another assay. Conditions: with arf6_human ARF6, P62330.
Take MDSPGYNCFVDKDKMDAAIQDLGPKELSCTELQELKQLARQGYWAQSHALRGKVYQRLIRDIPCRTVTPDASVYSDIVGKIVGKHSSSCLPLPEFVDNTQVPSYCLNARGEGAVRKILLCLANQFPDISFCPALPAVVALLLHYSIDEAECFEKACRILACNDPGRRLIDQSFLAFESSCMTFGDLVNKYCQAAHKLMVAVSEDVLQVYADWQRWLFGELPLCYFARVFDVFLVEGYKVLYRVALAILKFFHKVRAGQPLESDSVKQDIRTFVRDIAKTVSPEKLLEKAFAIRLFSRKEIQLLQMANEKALKQKGITVKQKRQFVHLAVHAENFRSEIVSVREMRDIWSWVPERFALCQPLLLFSSLQHGYSLARFYFQCEGHEPTLLLIKTTQKEVCGAYLSTDWSERNKFGGKLGFFGTGECFVFRLQPEVQRYEWVVIKHPELTKPPPLMAAEPTAPLSHSASSDPADRLSPFLAARHFNLPSKTESMFMAGGSDCLIVGGGGGQVLYIDGDLNRGRTSHCDTFNNQPLCSENFLIAAVEAWGFQDPDTQ [A509V]: the “effect of a mutation on the interaction” value was “with no effect”.

Take MDSPGYNCFVDKDKMDAAIQDLGPKELSCTELQELKQLARQGYWAQSHALRGKVYQRLIRDIPCRTVTPDASVYSDIVGKIVGKHSSSCLPLPEFVDNTQVPSYCLNARGEGAVRKILLCLANQFPDISFCPALPAVVALLLHYSIHEAECFEKACRILACNDPGRRLIDQSFLAFESSCMTFGDLVNKYCQAAHKLMVAVSEDVLQVYADWQRWLFGELPLCYFARVFDVFLVEGYKVLYRVALAILKFFHKVRAGQPLESDSVKQDIRTFVRDIAKTVSPEKLLEKAFAIRLFSRKEIQLLQMANEKALKQKGITVKQKRQFVHLAVHAENFRSEIVSVREMRDIWSWVPERFALCQPLLLFSSLQHGYSLARFYFQCEGHEPTLLLIKTTQKEVCGAYLSTDWSERNKFGGKLGFFGTGECFVFRLQPEVQRYEWVVIKHPELTKPPPLMAAEPTAPLSHSASSDPADRLSPFLAARHFNLPSKTESMFMAGGSDCLIVGGGGGQALYIDGDLNRGRTSHCDTFNNQPLCSENFLIAAVEAWGFQDPDTQ [D147H]: the “effect of a mutation on the interaction” value is “decreasing interaction strength”.
